Results as given in patent publication US20210032338A1.

Biological target: T Cell Receptor Gamma Variable 9 (TRGV9) on human γδ T cells (human) (UniProt Q99603)
Experiment: binding to γδ-enriched T cells, 1 h at 37 °C (panel γδ T-cell binding)

EC50: 0.56 nM
B1: VG9B2, chimera human IgG1 mAb (silent Fc) of mouse anti-human TCR Vγ9 clone B3 (antibody, V domains shown)
VH: QGQMQQSGAELVKPGASVKLSCKTSGFTFSSNYISWLKQKPGQSLEWIAWIHGGTGGIGYNQKFTGKAQLTVDTSSTTAYMQFSSLTTEDSAIYYCARRGYGAWFAYWGQGTLVTVSA
VL: DIQMTQSPASLSASVGETVTITCRASENIHNYLAWYQQKQGKSPQLLVYNAKTLADGVPSRFSGSGSGTQYSLKINSLQPEDFGNYYCQHFWSYPLTFGAGTKLELK
